Values of other authors as cited in PMC6158072.

Tests used:
[1] = tested on: Cys; settings: not stated (presumably the reduced thiol form)
[2] = tested on: Lys

Substance	pKa [1]	pKa [2]
Peroxiredoxin 5 (Prx5) (Homo sapiens)	5.5	–
Acetoacetate decarboxylase (not stated (Clostridium acetobutylicum inferred))	–	around 6
